Reference: article PMC7929516, “Hallmarks of Alpha- and Betacoronavirus non-structural protein 7+8 complexes” (Science Advances, 2021)
Changes are numbered by the printed parent chain.

B1: FIPV nsp7 (natural protein)
chain: SKLTEMKCTNVVLLGLLSKMHVESNSKEWNYCVGLHNEINLCDDPDAVLEKLLALIAFFLSKHNTCDLSDLIESYFENTTILQ
notes: also called feline CoV nsp7
B2: TGEV nsp7 (natural protein)
chain: B1 chain with D46E, A47I, D70E
B3: MERS-CoV nsp7 (natural protein)
chain: SKLTDLKCTSVVLLSVLQQLHLEANSRAWAFCVKCHNDILAATDPSEAFEKFVSLFATLMTFSGNVDLDALASDIFDTPSVLQ
B4: HCoV-229E nsp7 (natural protein)
chain: SKLTDLKCTNVVLMGILSNMNIASNSKEWAYCVEMHNKINLCDDPETAQELLLALLAFFLSKHSDFGLGDLVDSYFENDSILQ
B5: PEDV nsp7 (natural protein)
chain: SKLTDIKCSNVVLLGCLSSMNVSANSTEWAYCVDLHNKINLCNDPEKAQEMLLALLAFFLSKNSAFGLDDLLESYFNDNSMLQ

What was measured:
[1] = biological target: SARS-CoV-2 nsp7-8-His6 precursor (SARS-CoV-2); assay: native MS
[2] = biological target: HCoV-229E nsp7-8-His6 precursor (HCoV-229E); assay: native MS
[3] = biological target: SARS-CoV nsp7-8-His6 precursor (SARS-CoV (strain Frankfurt-1)); assay: native MS
[4] = biological target: PEDV nsp7-8-His6 precursor (PEDV (strain CV777))
native MS = biological target: the molecule itself; assay: native MS

Molecule | stoichiometry N (native MS) | other results
SARS-CoV-2 nsp7-8-His6 precursor (domain or fragment) | – | stoichiometry N [1]: 2
HCoV-229E nsp7-8-His6 precursor (domain or fragment) | – | stoichiometry N [2]: 2
SARS-CoV nsp7-8-His6 precursor (domain or fragment) | – | stoichiometry N [3]: 2
PEDV nsp7-8-His6 precursor (domain or fragment) | – | stoichiometry N [4]: 2
B1 | 2 | –
B2 | 2 | –
B3 | 2 | –
B4 | 2 | –
B5 | 2 | –
